According to publication PMC10128019:

Target: HA76Cda1 (Cda1 with the HA epitope inserted at position 76) (Ustilago maydis)
Experiment: FRET or BRET

“DyLight 550-labeled AFP1-His (AFP1^550) (natural protein)” showed an FRET efficiency of 23%.
